These are literature values, as cited in paper PMC3134397.

pKd: −log10 of the molar value.

The target in data set [1] is UL18 (Human betaherpesvirus 5) (UniProt P08560). Kind of data set: SPR. For orientation: In SPR one partner is held on a chip, and binding of the other changes the refractive index at the surface.
The target of the next data set is RAE-1γ (Mus musculus) (UniProt O08604). The data set can be described thus: AUC.
Another data set has as its target RAE-1β (Mus musculus) (UniProt O08603). Kind of data set: AUC.
A further data set deals with RAE-1δ (Mus musculus) (UniProt Q9JI58). Kind of data set: AUC.
UniProt Q9JI58, sequence (Q9JI58 29-225, stated change not applied): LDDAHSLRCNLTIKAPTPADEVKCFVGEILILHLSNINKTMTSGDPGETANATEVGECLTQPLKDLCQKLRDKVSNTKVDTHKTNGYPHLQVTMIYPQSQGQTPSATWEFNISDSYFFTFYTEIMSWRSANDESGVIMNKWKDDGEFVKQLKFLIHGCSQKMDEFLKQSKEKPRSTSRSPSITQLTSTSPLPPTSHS

UniProt O08604, sequence (O08604 29-227): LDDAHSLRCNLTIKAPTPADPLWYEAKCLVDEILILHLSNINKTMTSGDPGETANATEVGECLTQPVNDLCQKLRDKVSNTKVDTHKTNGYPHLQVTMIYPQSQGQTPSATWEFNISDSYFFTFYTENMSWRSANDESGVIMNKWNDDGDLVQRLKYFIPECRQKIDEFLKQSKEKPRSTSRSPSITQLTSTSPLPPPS
UniProt O08603, sequence (O08603 29-229): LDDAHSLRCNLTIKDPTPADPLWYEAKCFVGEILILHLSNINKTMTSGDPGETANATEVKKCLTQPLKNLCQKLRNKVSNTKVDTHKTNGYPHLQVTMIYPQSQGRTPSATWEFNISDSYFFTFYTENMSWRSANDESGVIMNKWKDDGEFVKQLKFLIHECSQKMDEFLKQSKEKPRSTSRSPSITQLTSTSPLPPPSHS

As usually defined, the pKd is the negative decadic logarithm of the Kd, by convention in mol/L. As for LIR1 (from UniProt Q8NHL6), in data set [1], the pKd was 8.00.
As to m152 (from UniProt Q83156), the negative logarithm of the Kd (pKd) in the data set with RAE-1γ (Mus musculus) was 6.00; with RAE-1β (Mus musculus), 5.52; in the data set with RAE-1δ (Mus musculus), 4.52.
